Residue numbers refer to the chain shown, from its start.

First the molecules themselves.
B1: H18L6_LC_G34D mAb, v40203 (antibody, human IgG1, kappa, V domains shown)
VH: QVQLVQSGAEVKKPGSSVKVSCKASGYTFTDYEMHWVKQAPGHGLEWIGAIDPETGDTAYNQKFKGKATLTADTSTSTAYMELSSLRSEDTAVYYCTRYFSFAYWGQGTLVTVSS
VL: EIVLTQSPATLSLSPGERATISCRSSQSLRHSNDNTYLQWYQQKPGQAPRLLIYKVSNRFSGVPARFSGSGSGTDFTLTISSLEPEDFAVYFCYQSKHVPYTFGGGTKVEIKR
B2: H18L6_LC_G34A mAb, v40212 (antibody, human IgG1, kappa, V domains shown)
VH: B1 VH
VL: B1 VL with D34A
notes: M3-H18L6 chains with the stated light chain point mutation, IgG1/kappa
B3: H18L6_LC_G34Q mAb, v40208 (antibody, human IgG1, kappa, V domains shown)
VH: B1 VH
VL: B1 VL with D34Q
notes: Full-size IgG1/kappa
B4: H18L6_LC_G34E mAb, v40204 (antibody, human IgG1, kappa, V domains shown)
VH: B1 VH
VL: B1 VL with D34E
notes: as for B2
B5: H18L6_LC_G34R mAb, v40206 (antibody, human IgG1, kappa, V domains shown)
VH: B1 VH
VL: B1 VL with D34R
notes: Full-size IgG1/kappa
B6: H18L6_LC_G34K mAb, v40207 (antibody, human IgG1, kappa, V domains shown)
VH: B1 VH
VL: B1 VL with D34K
notes: Full-size IgG1/kappa
B7: v37574 (M3-H18L6) (antibody, human IgG1, kappa)
heavy: not shown
light: EIVLTQSPATLSLSPGERATISCRSSQSLRHSNGNTYLQWYQQKPGQAPRLLIYKVSNRFSGVPARFSGSGSGTDFTLTISSLEPEDFAVYFCYQSKHVPYTFGGGTKVEIKRTVAAPSVFIFPPSDEQLKSGTASVVCLLNNFYPREAKVQWKVDNALQSGNSQESVTEQDSKDSTYSLSSTLTLSKADYEKHKVYACEVTHQGLSSPVTKSFNRGEC
notes: Humanized full-size IgG1/kappa antibody, heavy chains without C-terminal lysine
Throughout, for JHH-5 Internalization (MFI), Day 0 in mouse plasma: test concentration or dose not given here.
Throughout, for JHH-5 Internalization (MFI), Day 14 in mouse plasma: test concentration or dose not given here.
Throughout, for JHH-5 Internalization (MFI): test concentration or dose not given here.
Throughout, for JHH-7 Internalization (MFI), Day 0 in mouse plasma: test concentration or dose not given here.
Throughout, for JHH-7 Internalization (MFI), Day 14 in mouse plasma: test concentration or dose not given here.
Throughout, for JHH-7 Internalization (MFI): test concentration or dose not given here.

The first assay addresses T1, cynomolgus monkey glypican-3 (GPC3) (cynomolgus monkey, UniProt A5A6P7 25-554 (Pan troglodytes entry)).
T1 construct: Transiently expressed on CHO-S cells; also called cynoGPC3; CynoGPC3-CHO
The experiment in a line: flow cytometry on CHO-S cells transfected with cynomolgus GPC3.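 Note: antibodies incubated 24 h at 4 °C with transiently transfected cells, binding read as AF647 geometric mean fluorescence of live cells, GFP-transfected cells as negative control, Hill-slope specific-binding fit.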 A general note: Flow cytometry measures light scatter and fluorescence of single cells or particles in a stream.
Description: (§1) Briefly, CHO—S cells were transiently transfected for −24 hours with a pTT5-based expression plasmid encoding human GPC3 or cynomolgus monkey GPC3, 0.5 μg DNA per 1 million cells, using the Neon™ Transfection System (Thermo Fisher Scientific Corp., Waltham, MA), to transiently express human or cynomolgus monkey GPC3. Cells transfected with GFP were used as negative transfection controls. Following transfection, cells were seeded at 50,000 cells/well in V-bottom 96-well plates and treated with antibody for 24 hours at 4° C. to prevent internalization. […] Following incubation and washing, fluorescence was detected by flow cytometry on a BD LSRFortessa™ Cell Analyzer (BD Biosciences, Franklin Lake, NJ) with 1,000 minimum events collected per well. AF647/APC-A GeoMean (fluorescence signal geometric mean, proportional to anti-Human AF647 binding) in live cell population was plotted against antibody concentration using GraphPad Prism Version 9 (GraphPad Software, San Diego, CA). The Bmax and Kd values were derived from the “Specific binding with Hill slope” nonlinear regression curve fit in GraphPad Prism Version 9.
Turning to B1, the “Bmax (MFI)” value stood at 2870 MFI and the Kd was 0.18 nM.

With B2, the “Bmax (MFI)” value amounted to 3160 MFI and the Kd worked out at 0.25 nM.

With B3, the “Bmax (MFI)” value came out at 2820 MFI and the Kd was found to be 0.15 nM.

Regarding B4, the “Bmax (MFI)” value is 2870 MFI and the Kd was determined as 0.15 nM.

For the molecule B5, the “Bmax (MFI)” value amounted to 2850 MFI and the Kd was determined as 0.13 nM.

For B6, the “Bmax (MFI)” value is 2930 MFI and the Kd came out at 0.16 nM.

Another assay concerns the target T2, human glypican-3 (GPC3) (human, UniProt P51654 25-554).
T2 construct: Endogenous on JHH-7, JHH-5, HepG2 and NCI-H446 tumour cells, or transiently expressed on CHO-S cells from a pTT5 plasmid; also called hGPC3; huGPC3
The experiment in a line: flow cytometry on CHO-S cells transfected with human GPC3.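 Note: antibody binding to transiently transfected CHO-S cells after 24 hours at 4 °C, read as geometric mean fluorescence of anti-human AF647 in live cells, fitted against antibody concentration.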
Description: as §1
For B1, the “Bmax (MFI)” value is 2470 MFI and the Kd came out at 0.18 nM.

As for B2, the “Bmax (MFI)” value came out at 2200 MFI and the Kd amounted to 0.12 nM.

On to B3, for which the “Bmax (MFI)” value worked out at 2280 MFI and the Kd stood at 0.11 nM.

Take B4: the “Bmax (MFI)” value was 2260 MFI and the Kd was determined as 0.11 nM.

Turning to B5, the “Bmax (MFI)” value amounted to 2450 MFI and the Kd was determined as 0.1 nM.

For B6, the “Bmax (MFI)” value was determined as 2330 MFI and the Kd amounted to 0.11 nM.

Another assay deals with T2, human glypican-3 (GPC3). The experiment in a line: flow cytometry on JHH-7 cells (GPC3-high).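 Note: antibody binding at 4 °C for 24 h, detected with anti-human AF647 secondary, geometric mean fluorescence of live cells versus antibody concentration, fitted as specific binding with Hill slope.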
Description: (§2) Briefly, cells were seeded at 50,000 cells/well in V-bottom 96-well plates and treated with antibody for 24 hours at 4° C. to prevent internalization. […] Following incubation and washing, fluorescence was detected by flow cytometry on a BD LSRFortessa™ Cell Analyzer (BD Biosciences, Franklin Lake, NJ) with 1,000 minimum events collected per well. AF647/APC-A GeoMean (fluorescence signal geometric mean, proportional to anti-Human AF647 binding) in live cell population was plotted against antibody concentration using GraphPad Prism Version 9 (GraphPad Software, San Diego, CA). The Bmax, Curve Hill Slope (h) and Kd values were derived from the “Specific binding with Hill slope” nonlinear regression curve fit in GraphPad Prism Version 9.
Turning to B1, the “Bmax (MFI)” value stood at 12200 MFI and the Kd came to 0.4 nM.

Turning to B2, the “Bmax (MFI)” value worked out at 13300 MFI and the Kd amounted to 0.56 nM.

Regarding B3, the “Bmax (MFI)” value stood at 11600 MFI and the Kd was 0.44 nM.

With B4, the “Bmax (MFI)” value was 12500 MFI and the Kd came to 0.42 nM.

On to B5, for which the “Bmax (MFI)” value was found to be 12500 MFI and the Kd is 0.34 nM.

Take B6: the “Bmax (MFI)” value turned out to be 12200 MFI and the Kd turned out to be 0.39 nM.

In another assay the target is T2, human glypican-3 (GPC3). The experiment in a line: flow cytometry on JHH-5 cells; antibody in mouse plasma, day 0.
Description: (§3) For binding cells were seeded at 50,000 cells/well in V-bottom 96-well plates and treated with antibody for 24 hours at 4° C. to prevent internalization. […] Following incubation and washing, fluorescence was detected by flow cytometry on a BD LSRFortessa™ Cell Analyzer (BD Biosciences, Franklin Lake, NJ) with 1,000 minimum events collected per well. AF647/APC-A GeoMean (fluorescence signal geometric mean, proportional to anti-Human AF647 binding) in live cell population was plotted against antibody concentration using GraphPad Prism Version 9 (GraphPad Software, San Diego, CA). The Bmax, Curve Hill Slope (h) and Kd values were derived from the “Specific binding with Hill slope” nonlinear regression curve fit in GraphPad Prism Version 9.
On to B1, for which the “Bmax (MFI)” value amounted to 4660 MFI and the Kd was 0.11 nM.

In the case of B2, the “Bmax (MFI)” value came out at 4930 MFI and the Kd is 0.15 nM.

B3: the “Bmax (MFI)” value is 4730 MFI and the Kd turned out to be 0.11 nM.

On to B4, for which the “Bmax (MFI)” value turned out to be 4760 MFI and the Kd came out at 0.11 nM.

On to B5, for which the “Bmax (MFI)” value was found to be 5450 MFI and the Kd turned out to be 0.07 nM.

With B6, the “Bmax (MFI)” value is 5490 MFI and the Kd stood at 0.07 nM.

The next assay has as its target T2, human glypican-3 (GPC3). The experiment in a line: flow cytometry on JHH-5 cells; antibody after 14 days in mouse plasma at 37 C.
Description: as §3
As to B1, the “Bmax (MFI)” value was 4520 MFI and the Kd stood at 0.34 nM.

For the molecule B2, the “Bmax (MFI)” value worked out at 6050 MFI and the Kd came out at 0.23 nM.

As for B3, the “Bmax (MFI)” value was found to be 5640 MFI and the Kd was 0.15 nM.

In the case of B4, the “Bmax (MFI)” value is 4460 MFI and the Kd is 0.26 nM.

On to B5, for which the “Bmax (MFI)” value is 5320 MFI and the Kd was determined as 0.21 nM.

As to B6, the “Bmax (MFI)” value stood at 6460 MFI and the Kd is 0.26 nM.

The target in another assay is T2, human glypican-3 (GPC3). The experiment in a line: flow cytometry on JHH-7 cells; antibody in mouse plasma, day 0.
Description: as §3
Take B1: the “Bmax (MFI)” value was found to be 9140 MFI and the Kd came to 0.26 nM.

Take B2: the “Bmax (MFI)” value was found to be 8360 MFI and the Kd was found to be 0.36 nM.

B3: the “Bmax (MFI)” value was found to be 8910 MFI and the Kd is 0.32 nM.

As to B4, the “Bmax (MFI)” value came out at 8500 MFI and the Kd turned out to be 0.26 nM.

For the molecule B5, the “Bmax (MFI)” value was 9390 MFI and the Kd came out at 0.15 nM.

As for B6, the “Bmax (MFI)” value is 9620 MFI and the Kd was determined as 0.16 nM.

For a further assay, the target named is T3, cynomolgus monkey GPC3 on CHO-S cells (cynomolgus monkey, UniProt A0A2K5VK50 24-553).
T3 construct: whole, on cells; also called CHO-S Cyno GPC3
The experiment in a line: flow cytometry, CHO-S cells transfected with cynomolgus monkey GPC3.
Description: (§4) Briefly, CHO—S cells were transiently transfected for −24 hours with a pTT5-based expression plasmid encoding human GPC3 or cynomolgus monkey GPC3, 0.5 μg DNA per 1 million cells, using the Neon™ Transfection System (Thermo Fisher Scientific Corp., Waltham, MA), to transiently express human or cynomolgus monkey GPC3. Following transfection, cells were seeded at 50,000 cells/well in V-bottom 96-well plates and treated with antibody for 24 hours at 4° C. to prevent internalization. […] Following incubation and washing, fluorescence was detected by flow cytometry on a BD LSRFortessa™ Cell Analyzer (BD Biosciences, Franklin Lake, NJ) with 1,000 minimum events collected per well. AF647/APC-A GeoMean (fluorescence signal geometric mean, proportional to anti-Human AF647 binding) in live cell population was plotted against antibody concentration using GraphPad Prism Version 9 (GraphPad Software, San Diego, CA). The Bmax and Kd values were derived from the “Specific binding with Hill slope” nonlinear regression curve fit in GraphPad Prism Version 9.
Take B7: the Bmax was 474.

The next assay addresses T4, human GPC3 on cells (human, UniProt P51654 25-554).
T4 construct: whole, on cells; One molecule is used for transfected CHO-S cells and for tumour cell lines that carry GPC3; the cell line is named under assay or readout; also called CHO-S Human GPC3; GPC3 on HepG2, JHH-7, JHH-5, NCI-H446, FU-97, Huh-6, Huh-7, MKN-45 cells
Description: flow cytometry, HepG2 cells.
Description: (§5) Cell lines investigated included GPC3-hi HepG2 and JHH-7 cells, GPC3-mid JHH-5 cells, as well as GPC3-negative SNU-601 cells.
as §2
In turn, B7 yielded a Bmax of 4570.

The target of a further assay is T3, cynomolgus monkey GPC3 on CHO-S cells. Description: flow cytometry, CHO-S cells transfected with cynomolgus monkey GPC3; apparent Kd.
Description: as §4
Regarding B7, the Kd stood at 0.39 nM.

Another assay deals with T2, human glypican-3 (GPC3). The experiment in a line: flow cytometry on JHH-7 cells; antibody after 14 days in mouse plasma at 37 C.
Description: as §3
On to B1, for which the “Bmax (MFI)” value is 8060 MFI and the Kd was 0.62 nM.

For B2, the “Bmax (MFI)” value was 11300 MFI and the Kd was 0.28 nM.

As for B3, the “Bmax (MFI)” value stood at 11000 MFI and the Kd worked out at 0.23 nM.

Regarding B4, the “Bmax (MFI)” value was found to be 8430 MFI and the Kd is 0.67 nM.

B5: the “Bmax (MFI)” value was found to be 9710 MFI and the Kd turned out to be 0.39 nM.

Take B6: the “Bmax (MFI)” value amounted to 10900 MFI and the Kd amounted to 0.31 nM.

The next assay concerns the target T2, human glypican-3 (GPC3). Description: cell-based or functional assay.
As to B1, the “JHH-5 Internalization (MFI)” value worked out at 6770 MFI and the “JHH-7 Internalization (MFI)” value stood at 5010 MFI.

Regarding B2, the “JHH-5 Internalization (MFI)” value was 9070 MFI and the “JHH-7 Internalization (MFI)” value amounted to 8070 MFI.

On to B3, for which the “JHH-5 Internalization (MFI)” value came to 9510 MFI and the “JHH-7 Internalization (MFI)” value came to 8920 MFI.

For B4, the “JHH-5 Internalization (MFI)” value is 5770 MFI and the “JHH-7 Internalization (MFI)” value is 4410 MFI.

Consider B5, for which the “JHH-5 Internalization (MFI)” value turned out to be 10700 MFI and the “JHH-7 Internalization (MFI)” value was 9240 MFI.

With B6, the “JHH-5 Internalization (MFI)” value turned out to be 10000 MFI and the “JHH-7 Internalization (MFI)” value came to 8760 MFI.

In a further assay the target is T4, human GPC3 on cells. The experiment in a line: flow cytometry, JHH-7 cells.
Description: as §5, §2
B7 gave a Bmax of 4980 and a Kd of 3.31 nM.

In the next assay the target is T4, human GPC3 on cells. Description: flow cytometry, CHO-S cells transfected with human GPC3; apparent Kd.
Description: as §4
On to B7, for which the Kd came out at 0.2 nM.

The next assay deals with T4, human GPC3 on cells. Description: flow cytometry, JHH-5 cells.
Description: as §5, §2
In turn, B7 displayed a Bmax of 4350 and a Kd of 0.2 nM.

The target of another assay is T2, human glypican-3 (GPC3). Description: cell-based or functional assay. The source holds these as a separate data set.
On to B1, for which the “JHH-5 Internalization (MFI), Day 0 in mouse plasma” value amounted to 8690 MFI; the “JHH-5 Internalization (MFI), Day 14 in mouse plasma” value was 5690 MFI; the “JHH-7 Internalization (MFI), Day 0 in mouse plasma” value worked out at 104 MFI; the “JHH-7 Internalization (MFI), Day 14 in mouse plasma” value came out at 63 MFI.

For the molecule B2, the “JHH-5 Internalization (MFI), Day 0 in mouse plasma” value came out at 10200 MFI; the “JHH-5 Internalization (MFI), Day 14 in mouse plasma” value turned out to be 7290 MFI; the “JHH-7 Internalization (MFI), Day 0 in mouse plasma” value came to 131 MFI; the “JHH-7 Internalization (MFI), Day 14 in mouse plasma” value was 75 MFI.

As for B3, the “JHH-5 Internalization (MFI), Day 0 in mouse plasma” value was determined as 10500 MFI; the “JHH-5 Internalization (MFI), Day 14 in mouse plasma” value was 9980 MFI; the “JHH-7 Internalization (MFI), Day 0 in mouse plasma” value is 131 MFI; the “JHH-7 Internalization (MFI), Day 14 in mouse plasma” value amounted to 106 MFI.

Take B4: the “JHH-5 Internalization (MFI), Day 0 in mouse plasma” value worked out at 7100 MFI; the “JHH-5 Internalization (MFI), Day 14 in mouse plasma” value turned out to be 6040 MFI; the “JHH-7 Internalization (MFI), Day 0 in mouse plasma” value amounted to 91 MFI; the “JHH-7 Internalization (MFI), Day 14 in mouse plasma” value turned out to be 73 MFI.

As to B5, the “JHH-5 Internalization (MFI), Day 0 in mouse plasma” value was 13300 MFI; the “JHH-5 Internalization (MFI), Day 14 in mouse plasma” value came to 11100 MFI; the “JHH-7 Internalization (MFI), Day 0 in mouse plasma” value turned out to be 144 MFI; the “JHH-7 Internalization (MFI), Day 14 in mouse plasma” value is 115 MFI.

On to B6, for which the “JHH-5 Internalization (MFI), Day 0 in mouse plasma” value is 12800 MFI; the “JHH-5 Internalization (MFI), Day 14 in mouse plasma” value was determined as 11400 MFI; the “JHH-7 Internalization (MFI), Day 0 in mouse plasma” value was determined as 143 MFI; the “JHH-7 Internalization (MFI), Day 14 in mouse plasma” value came to 115 MFI.

In a further assay the target is T4, human GPC3 on cells. The experiment in a line: flow cytometry, CHO-S cells transfected with human GPC3.
Description: as §4
Turning to B7, the Bmax worked out at 242.

Another assay addresses T2, human glypican-3 (GPC3). Description: flow cytometry on JHH-5 cells (GPC3-mid).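 Note: antibody binding to cells at 4 °C for 24 h, detected with anti-human AF647 as geometric mean fluorescence of live cells versus antibody concentration, fitted by specific binding with Hill slope.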
Description: as §2
On to B1, for which the “Bmax (MFI)” value is 4280 MFI and the Kd is 0.24 nM.

For the molecule B2, the “Bmax (MFI)” value turned out to be 3850 MFI and the Kd amounted to 0.31 nM.

In the case of B3, the “Bmax (MFI)” value stood at 4360 MFI and the Kd worked out at 0.16 nM.

Take B4: the “Bmax (MFI)” value stood at 4140 MFI and the Kd is 0.17 nM.

For B5, the “Bmax (MFI)” value stood at 4910 MFI and the Kd turned out to be 0.19 nM.

As for B6, the “Bmax (MFI)” value came to 4740 MFI and the Kd is 0.2 nM.

(Values after patent US20250295799A1 (Zymeworks, published 2025).)
